Test results published in patent publication US20250304643A1 (BAINAN BIOTECH, published 2025).
*1 amine or outer side, *2 acyl side, *3 side chain or, on linkers, in order; H or OH if unused. Where no end group is shown, it is not given here. Side-chain parts run from the residue outwards. [ ]: non-standard residue; d: D form. The star is where a group is joined. C16 diacid = O=C(O)CCCCCCCCCCCCCCC(=O)*; γGlu = O=C(O)[C@H](CCC(=O)[*:2])N[*:1]; Palmitoyl = CCCCCCCCCCCCCCCC(=O)*; Decanoyl = CCCCCCCCCC(=O)*; Aib = CC(C)(N)C(=O)O

B1: Compound no. 31 (peptide)
peptide: H[Aib]DGTFISDYK([γGlu-Decanoyl])TILDKLAARDFIEWLIATKITK-OH
modifications: N-terminus assumed
SMILES: CCCCCCCCCC(=O)N[C@@H](CCC(=O)NCCCC[C@H](NC(=O)[C@H](Cc1ccc(O)cc1)NC(=O)[C@H](CC(=O)O)NC(=O)[C@H](CO)NC(=O)[C@@H](NC(=O)[C@H](Cc1ccccc1)NC(=O)[C@@H](NC(=O)CNC(=O)[C@H](CC(=O)O)NC(=O)C(C)(C)NC(=O)[C@@H](N)Cc1c[nH]cn1)[C@@H](C)O)[C@@H](C)CC)C(=O)N[C@H](C(=O)N[C@H](C(=O)N[C@@H](CC(C)C)C(=O)N[C@@H](CC(=O)O)C(=O)N[C@@H](CCCCN)C(=O)N[C@@H](CC(C)C)C(=O)N[C@@H](C)C(=O)N[C@@H](C)C(=O)N[C@@H](CCCNC(=N)N)C(=O)N[C@@H](CC(=O)O)C(=O)N[C@@H](Cc1ccccc1)C(=O)N[C@H](C(=O)N[C@@H](CCC(=O)O)C(=O)N[C@@H](Cc1c[nH]c2ccccc12)C(=O)N[C@@H](CC(C)C)C(=O)N[C@H](C(=O)N[C@@H](C)C(=O)N[C@H](C(=O)N[C@@H](CCCCN)C(=O)N[C@H](C(=O)N[C@H](C(=O)N[C@@H](CCCCN)C(=O)O)[C@@H](C)O)[C@@H](C)CC)[C@@H](C)O)[C@@H](C)CC)[C@@H](C)CC)[C@@H](C)CC)[C@@H](C)O)C(=O)O
B2: Compound no. 32 (peptide)
peptide: H[Aib]DGTFISDYK([γGlu-Palmitoyl])TILDNLAARDFINWLIETKITK-OH
modifications: N-terminus assumed
SMILES: CCCCCCCCCCCCCCCC(=O)N[C@@H](CCC(=O)NCCCC[C@H](NC(=O)[C@H](Cc1ccc(O)cc1)NC(=O)[C@H](CC(=O)O)NC(=O)[C@H](CO)NC(=O)[C@@H](NC(=O)[C@H](Cc1ccccc1)NC(=O)[C@@H](NC(=O)CNC(=O)[C@H](CC(=O)O)NC(=O)C(C)(C)NC(=O)[C@@H](N)Cc1c[nH]cn1)[C@@H](C)O)[C@@H](C)CC)C(=O)N[C@H](C(=O)N[C@H](C(=O)N[C@@H](CC(C)C)C(=O)N[C@@H](CC(=O)O)C(=O)N[C@@H](CC(N)=O)C(=O)N[C@@H](CC(C)C)C(=O)N[C@@H](C)C(=O)N[C@@H](C)C(=O)N[C@@H](CCCNC(=N)N)C(=O)N[C@@H](CC(=O)O)C(=O)N[C@@H](Cc1ccccc1)C(=O)N[C@H](C(=O)N[C@@H](CC(N)=O)C(=O)N[C@@H](Cc1c[nH]c2ccccc12)C(=O)N[C@@H](CC(C)C)C(=O)N[C@H](C(=O)N[C@@H](CCC(=O)O)C(=O)N[C@H](C(=O)N[C@@H](CCCCN)C(=O)N[C@H](C(=O)N[C@H](C(=O)N[C@@H](CCCCN)C(=O)O)[C@@H](C)O)[C@@H](C)CC)[C@@H](C)O)[C@@H](C)CC)[C@@H](C)CC)[C@@H](C)CC)[C@@H](C)O)C(=O)O
B3: Compound no. 33 (peptide)
peptide: H[Aib]DGTFISDYK([γGlu-Palmitoyl])T[Aib]LDALAARDFIEWLIQTKITK-OH
modifications: N-terminus assumed
SMILES: CCCCCCCCCCCCCCCC(=O)N[C@@H](CCC(=O)NCCCC[C@H](NC(=O)[C@H](Cc1ccc(O)cc1)NC(=O)[C@H](CC(=O)O)NC(=O)[C@H](CO)NC(=O)[C@@H](NC(=O)[C@H](Cc1ccccc1)NC(=O)[C@@H](NC(=O)CNC(=O)[C@H](CC(=O)O)NC(=O)C(C)(C)NC(=O)[C@@H](N)Cc1c[nH]cn1)[C@@H](C)O)[C@@H](C)CC)C(=O)N[C@H](C(=O)NC(C)(C)C(=O)N[C@@H](CC(C)C)C(=O)N[C@@H](CC(=O)O)C(=O)N[C@@H](C)C(=O)N[C@@H](CC(C)C)C(=O)N[C@@H](C)C(=O)N[C@@H](C)C(=O)N[C@@H](CCCNC(=N)N)C(=O)N[C@@H](CC(=O)O)C(=O)N[C@@H](Cc1ccccc1)C(=O)N[C@H](C(=O)N[C@@H](CCC(=O)O)C(=O)N[C@@H](Cc1c[nH]c2ccccc12)C(=O)N[C@@H](CC(C)C)C(=O)N[C@H](C(=O)N[C@@H](CCC(N)=O)C(=O)N[C@H](C(=O)N[C@@H](CCCCN)C(=O)N[C@H](C(=O)N[C@H](C(=O)N[C@@H](CCCCN)C(=O)O)[C@@H](C)O)[C@@H](C)CC)[C@@H](C)O)[C@@H](C)CC)[C@@H](C)CC)[C@@H](C)O)C(=O)O
B4: Compound no. 34 (peptide)
peptide: Ac-H[Aib]DGTFISDYK([γGlu-Palmitoyl])T[Aib]LDNLAARDFINWLIQTKITK-OH
SMILES: CCCCCCCCCCCCCCCC(=O)N[C@@H](CCC(=O)NCCCC[C@H](NC(=O)[C@H](Cc1ccc(O)cc1)NC(=O)[C@H](CC(=O)O)NC(=O)[C@H](CO)NC(=O)[C@@H](NC(=O)[C@H](Cc1ccccc1)NC(=O)[C@@H](NC(=O)CNC(=O)[C@H](CC(=O)O)NC(=O)C(C)(C)NC(=O)[C@H](Cc1c[nH]cn1)NC(C)=O)[C@@H](C)O)[C@@H](C)CC)C(=O)N[C@H](C(=O)NC(C)(C)C(=O)N[C@@H](CC(C)C)C(=O)N[C@@H](CC(=O)O)C(=O)N[C@@H](CC(N)=O)C(=O)N[C@@H](CC(C)C)C(=O)N[C@@H](C)C(=O)N[C@@H](C)C(=O)N[C@@H](CCCNC(=N)N)C(=O)N[C@@H](CC(=O)O)C(=O)N[C@@H](Cc1ccccc1)C(=O)N[C@H](C(=O)N[C@@H](CC(N)=O)C(=O)N[C@@H](Cc1c[nH]c2ccccc12)C(=O)N[C@@H](CC(C)C)C(=O)N[C@H](C(=O)N[C@@H](CCC(N)=O)C(=O)N[C@H](C(=O)N[C@@H](CCCCN)C(=O)N[C@H](C(=O)N[C@H](C(=O)N[C@@H](CCCCN)C(=O)O)[C@@H](C)O)[C@@H](C)CC)[C@@H](C)O)[C@@H](C)CC)[C@@H](C)CC)[C@@H](C)O)C(=O)O
B5: Compound no. 44 (peptide)
peptide: Decanoyl-H[Aib]DGTFISDYST[Aib]LDNLAARDFINWLIQTKITK-OH
SMILES: CCCCCCCCCC(=O)N[C@@H](Cc1c[nH]cn1)C(=O)NC(C)(C)C(=O)N[C@@H](CC(=O)O)C(=O)NCC(=O)N[C@H](C(=O)N[C@@H](Cc1ccccc1)C(=O)N[C@H](C(=O)N[C@@H](CO)C(=O)N[C@@H](CC(=O)O)C(=O)N[C@@H](Cc1ccc(O)cc1)C(=O)N[C@@H](CO)C(=O)N[C@H](C(=O)NC(C)(C)C(=O)N[C@@H](CC(C)C)C(=O)N[C@@H](CC(=O)O)C(=O)N[C@@H](CC(N)=O)C(=O)N[C@@H](CC(C)C)C(=O)N[C@@H](C)C(=O)N[C@@H](C)C(=O)N[C@@H](CCCNC(=N)N)C(=O)N[C@@H](CC(=O)O)C(=O)N[C@@H](Cc1ccccc1)C(=O)N[C@H](C(=O)N[C@@H](CC(N)=O)C(=O)N[C@@H](Cc1c[nH]c2ccccc12)C(=O)N[C@@H](CC(C)C)C(=O)N[C@H](C(=O)N[C@@H](CCC(N)=O)C(=O)N[C@H](C(=O)N[C@@H](CCCCN)C(=O)N[C@H](C(=O)N[C@H](C(=O)N[C@@H](CCCCN)C(=O)O)[C@@H](C)O)[C@@H](C)CC)[C@@H](C)O)[C@@H](C)CC)[C@@H](C)CC)[C@@H](C)O)[C@@H](C)CC)[C@@H](C)O

target: T1, human glucose-dependent insulinotropic polypeptide receptor (human, UniProt P48546 22-466); test: cell-based or functional assay
T1 sequence (looked up): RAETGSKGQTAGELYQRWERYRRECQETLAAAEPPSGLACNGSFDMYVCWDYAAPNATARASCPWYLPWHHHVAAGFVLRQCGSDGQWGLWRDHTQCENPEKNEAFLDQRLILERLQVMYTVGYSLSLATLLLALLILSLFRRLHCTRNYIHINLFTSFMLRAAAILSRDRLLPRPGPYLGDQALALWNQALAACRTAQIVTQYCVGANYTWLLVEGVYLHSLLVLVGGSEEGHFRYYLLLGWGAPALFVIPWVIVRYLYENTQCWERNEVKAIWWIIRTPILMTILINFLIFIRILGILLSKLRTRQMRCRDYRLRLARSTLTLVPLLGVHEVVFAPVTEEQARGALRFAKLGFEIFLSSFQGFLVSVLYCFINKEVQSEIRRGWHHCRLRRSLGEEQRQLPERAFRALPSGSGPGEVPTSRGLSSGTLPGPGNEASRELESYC

Binder	Efficacy GIPR [%]	EC50 (nM) GIPR [nM]
B1	89	–
B2	89	–
B3	101	–
B4	75	10
Ac-H[Aib]DGTFISDYK([γGlu-Palmitoyl])T[Aib]LDNLAARDFINWLIQTKITKNDWKHNITQ-OH [Compound no. 38]	81	–
{C16 diacid}-HADGTFISDYST[Aib]LDNLAARDFINWLIQTKITKNDWKHNITQ [Compound no. 39]	99	–
{C16 diacid}-H[Aib]DGTFISDYST[Aib]LDNLAARDFINWLIQTKITKNDWKHNITQ-OH [Compound no. 40]	94	1
{C16 diacid}-H[Aib]EGTFISDYST[Aib]LDALAARDFINWLIQTKITKNDWKHNITQ-OH [Compound no. 41]	91	–
{C16 diacid}-H[Aib]DGTFISDYST[Aib]LDNLAAKDFINWLIQTKITKNDWKHNITQ-OH [Compound no. 42]	91	–
B5	110	–
Palmitoyl-HADGTFISDYSTILDNLAARDFINWLLAQKITK [Compound no. 46]	98	–
Palmitoyl-HADGTFISDYSTILDNLAARDFINWLIQTKIT [Compound no. 2]	80	–

target: T2, human glucagon-like peptide-2 receptor (human, UniProt O95838 1-553); test: cell-based or functional assay
T2 sequence (looked up): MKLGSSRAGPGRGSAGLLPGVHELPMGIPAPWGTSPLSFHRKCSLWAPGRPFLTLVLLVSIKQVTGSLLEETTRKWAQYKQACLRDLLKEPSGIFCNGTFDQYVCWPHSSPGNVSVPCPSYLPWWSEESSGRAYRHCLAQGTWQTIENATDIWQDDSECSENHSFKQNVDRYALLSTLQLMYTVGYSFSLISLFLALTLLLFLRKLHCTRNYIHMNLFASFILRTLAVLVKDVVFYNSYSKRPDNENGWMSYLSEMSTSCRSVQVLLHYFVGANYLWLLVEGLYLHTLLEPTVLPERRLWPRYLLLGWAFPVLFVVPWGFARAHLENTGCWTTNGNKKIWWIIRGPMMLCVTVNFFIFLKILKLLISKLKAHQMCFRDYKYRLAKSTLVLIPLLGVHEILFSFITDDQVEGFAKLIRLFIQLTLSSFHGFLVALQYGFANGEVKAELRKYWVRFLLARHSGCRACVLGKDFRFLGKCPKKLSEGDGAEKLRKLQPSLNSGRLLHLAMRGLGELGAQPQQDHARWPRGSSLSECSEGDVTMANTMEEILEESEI

Binder	Efficacy GLP-2R [%]	EC50 (nM) GLP-2R [nM]	logEC50 GLP-2R
B1	90	–	–
B2	84	10	8
B3	97	–	–
B4	103	–	–
Ac-H[Aib]DGTFISDYK([γGlu-Palmitoyl])T[Aib]LDNLAARDFINWLIQTKITKNDWKHNITQ-OH [Compound no. 38]	89	–	–
{C16 diacid}-HADGTFISDYST[Aib]LDNLAARDFINWLIQTKITKNDWKHNITQ [Compound no. 39]	78	1	9
{C16 diacid}-H[Aib]DGTFISDYST[Aib]LDNLAARDFINWLIQTKITKNDWKHNITQ-OH [Compound no. 40]	96	–	9
{C16 diacid}-H[Aib]EGTFISDYST[Aib]LDALAARDFINWLIQTKITKNDWKHNITQ-OH [Compound no. 41]	74	–	8.8
{C16 diacid}-H[Aib]DGTFISDYST[Aib]LDNLAAKDFINWLIQTKITKNDWKHNITQ-OH [Compound no. 42]	93	–	–
B5	100	–	–
Palmitoyl-HADGTFISDYSTILDNLAARDFINWLLAQKITK [Compound no. 46]	82	–	–
Palmitoyl-HADGTFISDYSTILDNLAARDFINWLIQTKIT [Compound no. 2]	59	–	–
